The values below come from US11306156.

Where two headings read alike, the source gives them in different places.

The target in test [1] is D3H44 light chain P44F_Q124R_Q160K_T178R. The test can be described thus: SMCA: LC-MS of protein A purified product after co-expression of H1, H2, L1, L2 in CHO-3E7; competing light chain m46.
In test [2] the target is D3H44 light chain Q124E_V133W_S176T_T178L_T180E. Briefly: SMCA co-expression, LC-MS; competing light chain m6.
The target is the same in test [3]. The test can be described thus: SMCA: 2 heavy + 2 light chains co-expressed, protein A, LC-MS; competing light chain m24.
Test [4] concerns the target tissue factor (TF) antigen (UniProt P13726). The test can be described thus: SPR; against wild-type D3H44 Fab; * estimated from the same Fab with another L chain tag.
Test [5] has the same target. The test can be described thus: SPR (ProteOn), Fab captured on anti-penta His, TF as analyte, 1:1 fit; * estimated from the same Fab with another L chain tag.
Test [6] concerns the target D3H44 light chain Q124R_Q160K_T178R. Briefly: SMCA: H1, H2, L1, L2 co-expressed in CHO-3E7, protein A, LC-MS; competitor light chain m28.
The target in test [7] is D3H44 light chain Q124E_Q160E_T180E. Briefly: SMCA: 2 heavy + 2 light chains co-expressed, protein A, LC-MS; competing light chain m4.
Test [8] has the same target. The test can be described thus: SMCA: four chains co-expressed in CHO-3E7, protein A, LC-MS; competing light chain m21.
In test [9] the target is D3H44 light chain P44F_S131K. The test can be described thus: SMCA: LC-MS of protein A purified product after co-expression of H1, H2, L1, L2 in CHO-3E7; competing light chain m46.
The target in test [10] is D3H44 light chain Q38E_Q124E_Q160E_T180E. The test can be described thus: SMCA: four chains co-expressed in CHO-3E7, protein A, LC-MS; competing light chain m28.
Test [11] deals with D3H44 light chain Q124E_Q160E_T180E. The test can be described thus: SMCA: four chains co-expressed in CHO-3E7, protein A, LC-MS; competing light chain m18.
The target is the same in test [12]. The test can be described thus: SMCA: H1, H2, L1, L2 co-expressed in CHO-3E7, protein A, LC-MS; competitor light chain m44.
Test [13] addresses D3H44 Fab heavy chain L124E_L143E_K145M (H1 of LCCA sets 9269, 9266, 9267, 9260, 9262, 9263).
The target of test [14] is D3H44 Fab heavy chain L124E_L143D_K145T (H1 of LCCA sets 9214, 9217, 9216, 9219, 9220, 9225, 9228, 9229).
Test [15] deals with D3H44 Fab heavy chain L124R_D146N_Q179K. The test can be described thus: LCCA, L1:L2 DNA 1:3 normalised to 1:1, SPR of light chain tags; competitor m56.
Test [16] addresses D3H44 Fab heavy chain L124E_L143E_K145M. The test is described as above.
In test [17] the target is D3H44 Fab heavy chain L124E_L143D_K145T (H1 of LCCA sets 9214, 9217, 9216, 9219, 9220, 9225, 9228, 9229). Briefly: LCCA: H1 co-expressed with L1 and L2 (DNA 333:250:749 ng), His-tag capture on SPR chip, light chain tags detected with anti-HA/anti-FLAG; competitor L2 Q124E_V133G_S176D_T178E_T180E.
Test [18] shares this target. Briefly: LCCA: H1 co-expressed with L1 and L2 (DNA 333:250:749 ng), His-tag capture on SPR chip, light chain tags detected with anti-HA/anti-FLAG; competitor L2 Q124E_V133G_S176D_T178D_T180E.
Test [19] has as its target D3H44 Fab heavy chain L124R_D146N_Q179K (H1 of LCCA sets 9358, 9359, 9357, 9351, 9352, 9353, 9354, 9350). The test can be described thus: LCCA: H1 co-expressed with L1 and L2 (DNA 333:250:749 ng), His-tag capture on SPR chip, light chain tags detected with anti-HA/anti-FLAG; competitor L1 Q124E_V133G_S176D_T178E_T180E.
Test [20] has as its target D3H44 Fab heavy chain L124E_L143E_K145M (H1 of LCCA sets 9269, 9266, 9267, 9260, 9262, 9263). The source holds these as a separate data set.
The target in test [21] is D3H44 Fab heavy chain L124E_L143D_K145T (H1 of LCCA sets 9214, 9217, 9216, 9219, 9220, 9225, 9228, 9229). This is another data set of the same source.
In test [22] the target is D3H44 Fab heavy chain L124E_L143E_K145M (H1 of LCCA sets 9269, 9266, 9267, 9260, 9262, 9263). Briefly: LCCA: H1 co-expressed with L1 and L2 (DNA 333:250:749 ng), His-tag capture on SPR chip, light chain tags detected with anti-HA/anti-FLAG; competitor L2 V133G_S176D_T178D_T180E.
The target of test [23] is D3H44 Fab heavy chain L124E_L143D_K145T (H1 of LCCA sets 9214, 9217, 9216, 9219, 9220, 9225, 9228, 9229). Described as above.
For test [24], the target named is D3H44 light chain Q38E_Q124E_Q160E_T180E. The test can be described thus: SMCA: H1, H2, L1, L2 co-expressed in CHO-3E7, protein A, LC-MS; competitor light chain m8.
The target of test [25] is D3H44 light chain Q124E_Q160E_T180E. The test can be described thus: SMCA: four chains co-expressed in CHO-3E7, protein A, LC-MS; competing light chain m24.
In test [26] the target is D3H44 light chain V133G_N137K_S174R_S176R. Briefly: SMCA co-expression, LC-MS; competing light chain m24.
Test [27] shares this target. Briefly: SMCA co-expression, LC-MS; competing light chain m20.
Test [28] shares this target. Briefly: SMCA: 2 heavy + 2 light chains co-expressed, protein A, LC-MS; competing light chain m48.
Test [29] deals with Trastuzumab light chain P44F_Q124R_Q160K_T178R. The test can be described thus: SMCA: four chains co-expressed in CHO-3E7, protein A, LC-MS; competing light chain m16.
A further test deals with D3H44 light chain Q124R. The test can be described thus: SMCA: LC-MS of protein A purified product after co-expression of H1, H2, L1, L2 in CHO-3E7; competing light chain m50.
Test [30] deals with D3H44 light chain Q124R_Q160K_T178R. The test can be described thus: SMCA: LC-MS of protein A purified product after co-expression of H1, H2, L1, L2 in CHO-3E7; competing light chain m48.
In test [31] the target is D3H44 light chain Q38R_S131K. Briefly: SMCA: H1, H2, L1, L2 co-expressed in CHO-3E7, protein A, LC-MS; competitor light chain m4.
Test [32] concerns the target Trastuzumab light chain P44F_S131K. Briefly: SMCA: four chains co-expressed in CHO-3E7, protein A, LC-MS; competing light chain m16.
For test [33], the target named is D3H44 light chain Q124E_N137K_Q160E_S174R_T180E. Briefly: SMCA: 2 heavy + 2 light chains co-expressed, protein A, LC-MS; competing light chain m38.

In the case of “D3H44 heavy chain L45P_L143E_K145T (from UniProt P0DOX5 2-448)”, in [1], the % H1L1 Pairing (over all H1 species) is 88.1%.

Consider “D3H44 heavy chain L124A_L143F_Q179K (from UniProt P0DOX5 2-448)”, for which the % H1L1 Pairing (over all H1 species) in [2] and in test [3] was 100% in each case. The substance further registered a Change in % H1L1 Pairing (over all H1 species) with respect to wild type in test [2] of 38.1%.

As for “D3H44 Fab heterodimer, H1 L124E_L143E_K145T / L1 Q124K_V133G_S176R_T178K (H1L1 of LCCA sets 9308 and 9300)”, the Change in KD with respect to wild type (-(log(KD design) - log(KD wt))) in [4] was -0.12. Besides, the dissociation constant Kd in [5] was 210 pM.

Turning to “D3H44 heavy chain L143E_K145T_H172R (from UniProt P0DOX5 2-448)”, the % H1L1 Pairing (over all H1 species) in test [6] was 100%.

In the case of “D3H44 heavy chain H172R_S186R (from UniProt P0DOX5 2-448)”, the % H1L1 Pairing (over all H1 species) in [7] worked out at 100%.

In [8], “D3H44 full-length heavy chain D146G_Q179K (from UniProt P0DOX5 2-448)” returned a % H1L1 Pairing (over all H1 species) of 100%.

The substance “D3H44 heavy chain L45P_K145T_H172R_Q179E (from UniProt P0DOX5 2-448)” registered a % H1L1 Pairing (over all H1 species) in test [9] of 75.5%.

“D3H44 full-length heavy chain Q39R_S186R (from UniProt P0DOX5 2-448)” came in with a % H1L1 Pairing (over all H1 species) in test [10] of 100%.

For the substance “D3H44 full-length heavy chain Q179K (from UniProt P0DOX5 2-448)”, the % H1L1 Pairing (over all H1 species) in test [11] was found to be 100%.

“D3H44 heavy chain D146G_Q179K (from UniProt P0DOX5 2-448)” came in with a % H1L1 Pairing (over all H1 species) in test [12] of 100%.

Turning to “D3H44 light chain Q124K_V133G_S176R_T178K”, the median LCCA performance normalized to a L1:L2 DNA ratio of 1:1 (ratio H1-L1:H1-L2), H1-L1 share (ratio part of 100) in test [13] was 88; in test [14], 81; in test [17], 79; in test [18], 85; in [20], 85; in [21] it was 84. Besides, the figures for the median LCCA performance normalized to a L1:L2 DNA ratio of 1:1 (ratio H1-L1:H1-L2), H1-L1 share (ratio part of 100) in test [22] and in test [23] were 63 and 82, respectively. Moreover, the H2L2:H2L1 normalized median ratio in test [15] was 16%. Moreover, the H1L1:H1L2 normalized median ratio in test [16] came out at 84%. Moreover, the H1L1:H1L2 normalized median scalar value ln(r1/f1) in test [16] was 1.67. Also, the median LCCA performance normalized to a L1:L2 DNA ratio of 1:1 (ratio H1-L1:H1-L2), H1-L2 share (ratio part of 100) in test [19] was found to be 16.

“D3H44 heavy chain Q39R_S186R (from UniProt P0DOX5 2-448)”: in [24], the % H1L1 Pairing (over all H1 species) was determined as 100%.

In turn, “D3H44 full-length heavy chain H172R_S186R (from UniProt P0DOX5 2-448)” showed a % H1L1 Pairing (over all H1 species) in [25] of 100%.

“D3H44 heavy chain L124E_H172T (from UniProt P0DOX5 2-448)”: the values for the % H1L1 Pairing (over all H1 species) in test [26], in test [27] and in test [28] were 50.5%, 100% and 100%, respectively. Also, the Change in % H1L1 Pairing (over all H1 species) with respect to wild type is 9.9% in [26] and 38.1% in [27].

Regarding “Trastuzumab full-length heavy chain L45P_L143E_K145T (from UniProt P0DOX5 2-448)”, in test [29], the % H2L2 Pairing (over all H2 species) was 94.8%.

With “D3H44 heavy chain L143E_K145T (from UniProt P0DOX5 2-448)”, the results for the % H1L1 Pairing (over all H1 species) (with D3H44 light chain Q124R; in [30]) were 91.5% and 83.2%, respectively.

Take “D3H44 heavy chain Q39E_K145T_Q179E (from UniProt P0DOX5 2-448)”: in test [31], the % H1L1 Pairing (over all H1 species) came out at 100%.

As to “Trastuzumab full-length heavy chain L45P_K145T_H172R_Q179E (from UniProt P0DOX5 2-448)”, the % H2L2 Pairing (over all H2 species) in test [32] turned out to be 96.3%.

Turning to “D3H44 heavy chain H172T_Q179K (from UniProt P0DOX5 2-448)”, the % H1L1 Pairing (over all H1 species) in test [33] was 100%.
